Molecular target: the molecule itself
Assay: AUC

B1: gp5β-BC, solvent-exposed part of the β-helical domain of bacteriophage T4 gene product 5 (residues 483–575) (domain or fragment, UniProt P16009 483-575, looked up)
chain: RGDETKTVEGNGTILVKGNVTIIVEGNADITVKGDATTLVEGNQTNTVNGNLSWKVAGTVDWDVGGDWTEKMASMSSISSGQYTIDGSRIDIG
For B1, the “stoichiometry N” value was 3.
